Target: human PCNA, purified (immobilised on the GLC chip) (human), P12004
Experiment: SPR
Details: remark: other sources report otherwise

Chain of human PCNA, purified (immobilised on the GLC chip) (human), P12004 (P12004 whole entry): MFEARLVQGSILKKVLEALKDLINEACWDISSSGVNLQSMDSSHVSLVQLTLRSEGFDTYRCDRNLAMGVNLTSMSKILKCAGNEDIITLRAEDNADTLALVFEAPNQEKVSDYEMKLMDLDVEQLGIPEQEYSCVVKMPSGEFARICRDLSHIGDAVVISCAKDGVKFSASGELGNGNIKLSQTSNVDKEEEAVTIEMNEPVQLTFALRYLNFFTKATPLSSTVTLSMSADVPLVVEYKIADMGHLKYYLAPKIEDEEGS

B1: p125 (PolD1), catalytic subunit of human DNA polymerase delta, purified, P28340 1-1107 (natural protein)
chain: MDGKRRPGPGPGVPPKRARGGLWDDDDAPRPSQFEEDLALMEEMEAEHRLQEQEEEELQSVLEGVADGQVPPSAIDPRWLRPTPPALDPQTEPLIFQQLEIDHYVGPAQPVPGGPPPSRGSVPVLRAFGVTDEGFSVCCHIHGFAPYFYTPAPPGFGPEHMGDLQRELNLAISRDSRGGRELTGPAVLAVELCSRESMFGYHGHGPSPFLRITVALPRLVAPARRLLEQGIRVAGLGTPSFAPYEANVDFEIRFMVDTDIVGCNWLELPAGKYALRLKEKATQCQLEADVLWSDVVSHPPEGPWQRIAPLRVLSFDIECAGRKGIFPEPERDPVIQICSLGLRWGEPEPFLRLALTLRPCAPILGAKVQSYEKEEDLLQAWSTFIRIMDPDVITGYNIQNFDLPYLISRAQTLKVQTFPFLGRVAGLCSNIRDSSFQSKQTGRRDTKVVSMVGRVQMDMLQVLLREYKLRSYTLNAVSFHFLGEQKEDVQHSIITDLQNGNDQTRRRLAVYCLKDAYLPLRLLERLMVLVNAVEMARVTGVPLSYLLSRGQQVKVVSQLLRQAMHEGLLMPVVKSEGGEDYTGATVIEPLKGYYDVPIATLDFSSLYPSIMMAHNLCYTTLLRPGTAQKLGLTEDQFIRTPTGDEFVKTSVRKGLLPQILENLLSARKRAKAELAKETDPLRRQVLDGRQLALKVSANSVYGFTGAQVGKLPCLEISQSVTGFGRQMIEKTKQLVESKYTVENGYSTSAKVVYGDTDSVMCRFGVSSVAEAMALGREAADWVSGHFPSPIRLEFEKVYFPYLLISKKRYAGLLFSSRPDAHDRMDCKGLEAVRRDNCPLVANLVTASLRRLLIDRDPEGAVAHAQDVISDLLCNRIDISQLVITKELTRAASDYAGKQAHVELAERMRKRDPGSAPSLGDRVPYVIISAAKGVAAYMKSEDPLFVLEHSLPIDTQYYLEQQLAKPLLRIFEPILGEGRAEAVLLRGDHTRCKTVLTGKVGGLLAFAKRRNCCIGCRTVLSHQGAVCEFCQPRESELYQKEVSHLNALEERFSRLWTQCQRCQGSLHEDVICTSRDCPIFYMRKKVRKDLEDQEQLLRRFGPPGPEAW
Q: B1 was tested. Which Kd did it give?
A: 100 nM

Q: And the response units?
A: 90 RU
